Assay [1] addresses T1, 破伤风毒素重链C端结构域 (TeNT-HC, GenBank:AF154828) (破伤风梭菌 (C.tetani), UniProt P04958 865-1315).
T1 sequence: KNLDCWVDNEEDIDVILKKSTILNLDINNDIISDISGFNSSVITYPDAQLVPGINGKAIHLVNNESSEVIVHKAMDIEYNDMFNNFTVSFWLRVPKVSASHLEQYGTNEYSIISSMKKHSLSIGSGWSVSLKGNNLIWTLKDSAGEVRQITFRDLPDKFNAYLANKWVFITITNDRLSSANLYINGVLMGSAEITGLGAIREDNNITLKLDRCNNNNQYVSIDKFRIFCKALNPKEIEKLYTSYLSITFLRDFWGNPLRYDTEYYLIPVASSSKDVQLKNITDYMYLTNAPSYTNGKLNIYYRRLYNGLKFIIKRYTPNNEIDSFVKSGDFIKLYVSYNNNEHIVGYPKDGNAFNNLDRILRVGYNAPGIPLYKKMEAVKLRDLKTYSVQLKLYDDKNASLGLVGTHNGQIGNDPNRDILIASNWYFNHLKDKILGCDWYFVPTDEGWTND
The experiment in a line: ELISA, coated TeNT-HC 1 μg/mL, T9-6 titrated 1:3 from 3.3 μg/mL. On the technique in general: ELISA stands for enzyme-linked immunosorbent assay.

The target of assay [2] is T2, 破伤风类毒素 (TT) (破伤风梭菌 (C.tetani), UniProt P04958 2-1315).
T2 sequence (P04958 2-457 limits assumed): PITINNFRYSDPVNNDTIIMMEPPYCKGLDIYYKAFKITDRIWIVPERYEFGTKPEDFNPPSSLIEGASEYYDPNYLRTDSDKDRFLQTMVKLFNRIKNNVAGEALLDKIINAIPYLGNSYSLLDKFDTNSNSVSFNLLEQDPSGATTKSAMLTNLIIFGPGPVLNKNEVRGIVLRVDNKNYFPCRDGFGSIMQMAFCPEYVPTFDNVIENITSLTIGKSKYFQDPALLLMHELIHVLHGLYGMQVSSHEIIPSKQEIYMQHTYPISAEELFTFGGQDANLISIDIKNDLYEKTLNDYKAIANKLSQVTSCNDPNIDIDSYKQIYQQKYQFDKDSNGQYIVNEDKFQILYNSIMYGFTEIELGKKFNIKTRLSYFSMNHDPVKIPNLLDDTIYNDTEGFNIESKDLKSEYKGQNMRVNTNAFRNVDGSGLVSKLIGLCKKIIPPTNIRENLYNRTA
Assay [3] deals with T2, 破伤风类毒素 (TT). Put plainly: ELISA, coated TT 1 μg/mL, T9-6 titrated 1:3 from 3.3 μg/mL.

The values that follow come from patent CN111909265A (INST MILITARY MEDICINE ACADEMY MILITARY SCIENCES PLA, dated 2020).

B1: T9-6 人源抗破伤风毒素单克隆抗体 (antibody, V domains shown)
VH: QLVQSGGGLIQPGGSLRLSCAASGSGFSVSSNYMTWVRQAPGKGLEWVAVIYRNGSTNYADSVRGRFTISRDNSKNTVFVQMNRLRVEDTAVYYCARDFVVVVSTGPEVSYYSYGMDVWGQGTMVTGSS
VL: DIVMTQSPSSLSASVGDRVTITCRASQGISDYLSWYQQKPGKAPKRLIYGTSSLDSGVPSRFSGSGSGTEFTLTISSLQPEDVATYYCLQHHGFPRTFGQGTKVDIKR
With B1, the results for the concentration for a half-maximal effect (EC50) (in assay [1]; in the assay with 破伤风类毒素 (TT) [3]) were 3.45 ng/mL and 6.18 ng/mL, respectively. The dissociation constant Kd in the assay with 破伤风类毒素 (TT) [2] worked out at 0.397 nM.

For orientation: EC50 means the concentration at which the effect is half-maximal. A word on the Kd: it is the equilibrium constant for the complex coming apart. A high value points to a looser complex.
